Among the data in patent US10450368 are stoichiometry (Fabs per trimer) (Fabs per trimer), LogAUC and AtheNA signal (relative luminescence units) values, retold here.

Experiment [1] deals with BG505 SOSIP.664 gp140 trimer (HIV-1). Put plainly: negative stain EM.
The target of another experiment is CH0505_CON D7gp120/293i. Put plainly: ELISA. (In an ELISA, binding on a coated surface is turned into a signal by an enzyme label.)
For the next experiment, the target named is CH505.M10D8gp120. Description: ELISA.
The next experiment concerns the target CH505.M11D8gp120/293F. Description: ELISA.
For the next experiment, the target named is CH505.M19D8gp120. Description: ELISA.
Another experiment deals with CH505.M21D8gp120/293F. Description: ELISA.
In the next experiment the target is CH505.M5D8gp120293F. Put plainly: ELISA.
The target of a further experiment is CH505.M7D8gp120/293F. Put plainly: ELISA.
For the next experiment, the target named is CH505.M9D8gp120/293F. Description: ELISA.
The target of experiment [2] is CH505.TF mutant gp120 M20 (HIV-1). Put plainly: ELISA.
The target in experiment [3] is CH505.TF mutant gp120 M6 (HIV-1). Description: ELISA.
Experiment [4] has as its target CH505.TF mutant gp120 M8 (HIV-1). Put plainly: ELISA.
The next experiment has as its target CH505.w30.12D8gp120. Description: ELISA.
The next experiment addresses CH505w020.14D8gp120. Put plainly: ELISA.
For another experiment, the target named is CH505w030.20D8gp120/293F. Put plainly: ELISA.
The next experiment has as its target CH505w136.B18D8gp120. Put plainly: ELISA.
Experiment [5] has as its target Centromere B (UniProt P07199). Description: AtheNA, Ab 25 ug/ml.
The target in experiment [6] is Histones. Put plainly: AtheNA, Ab 25 ug/ml.
The target in experiment [7] is Jo-1 (UniProt P12081). Description: AtheNA, Ab 25 ug/ml.
Experiment [8] has as its target RNP (ribonucleoprotein). Description: AtheNA, Ab 25 ug/ml.
Experiment [9] deals with SSA. Description: AtheNA, Ab 25 ug/ml.
Experiment [10] concerns the target SSB (UniProt P05455). Description: AtheNA, Ab 25 ug/ml.
The target in experiment [11] is Scl-70 (UniProt P11387). Put plainly: AtheNA, Ab 25 ug/ml.
The target in experiment [12] is Sm (Smith antigen). Description: AtheNA, Ab 25 ug/ml.
Experiment [13] deals with Centromere B (UniProt P07199). Put plainly: AtheNA, Ab 50 ug/ml.
Experiment [14] concerns the target Histones. Put plainly: AtheNA, Ab 50 ug/ml.
Experiment [15] concerns the target RNP (ribonucleoprotein). Description: AtheNA, Ab 50 ug/ml.
Experiment [16] concerns the target Sm (Smith antigen). Put plainly: AtheNA, Ab 50 ug/ml.
For experiment [17], the target named is Centromere B (UniProt P07199). Put plainly: AtheNA, Ab 12.5 ug/ml.
Experiment [18] deals with Histones. Description: AtheNA, Ab 12.5 ug/ml.
Experiment [19] deals with Jo-1 (UniProt P12081). Description: AtheNA, Ab 12.5 ug/ml.
Experiment [20] concerns the target RNP (ribonucleoprotein). Description: AtheNA, Ab 12.5 ug/ml.
Experiment [21] has as its target SSA. Put plainly: AtheNA, Ab 12.5 ug/ml.
Experiment [22] deals with SSB (UniProt P05455). Description: AtheNA, Ab 12.5 ug/ml.
Experiment [23] concerns the target Scl-70 (UniProt P11387). Description: AtheNA, Ab 12.5 ug/ml.
Experiment [24] has as its target Sm (Smith antigen). Put plainly: AtheNA, Ab 12.5 ug/ml.
Experiment [25] concerns the target Centromere B (UniProt P07199). Description: AtheNA, Ab 6.25 ug/ml.
Experiment [26] has as its target Histones. Description: AtheNA, Ab 6.25 ug/ml.
Experiment [27] has as its target Jo-1 (UniProt P12081). Description: AtheNA, Ab 6.25 ug/ml.
Experiment [28] addresses RNP (ribonucleoprotein). Put plainly: AtheNA, Ab 6.25 ug/ml.
The target in experiment [29] is SSA. Description: AtheNA, Ab 6.25 ug/ml.
Experiment [30] addresses SSB (UniProt P05455). Description: AtheNA, Ab 6.25 ug/ml.
For experiment [31], the target named is Scl-70 (UniProt P11387). Put plainly: AtheNA, Ab 6.25 ug/ml.
In experiment [32] the target is Sm (Smith antigen). Put plainly: AtheNA, Ab 6.25 ug/ml.

Sequence of Scl-70 (P11387 whole entry): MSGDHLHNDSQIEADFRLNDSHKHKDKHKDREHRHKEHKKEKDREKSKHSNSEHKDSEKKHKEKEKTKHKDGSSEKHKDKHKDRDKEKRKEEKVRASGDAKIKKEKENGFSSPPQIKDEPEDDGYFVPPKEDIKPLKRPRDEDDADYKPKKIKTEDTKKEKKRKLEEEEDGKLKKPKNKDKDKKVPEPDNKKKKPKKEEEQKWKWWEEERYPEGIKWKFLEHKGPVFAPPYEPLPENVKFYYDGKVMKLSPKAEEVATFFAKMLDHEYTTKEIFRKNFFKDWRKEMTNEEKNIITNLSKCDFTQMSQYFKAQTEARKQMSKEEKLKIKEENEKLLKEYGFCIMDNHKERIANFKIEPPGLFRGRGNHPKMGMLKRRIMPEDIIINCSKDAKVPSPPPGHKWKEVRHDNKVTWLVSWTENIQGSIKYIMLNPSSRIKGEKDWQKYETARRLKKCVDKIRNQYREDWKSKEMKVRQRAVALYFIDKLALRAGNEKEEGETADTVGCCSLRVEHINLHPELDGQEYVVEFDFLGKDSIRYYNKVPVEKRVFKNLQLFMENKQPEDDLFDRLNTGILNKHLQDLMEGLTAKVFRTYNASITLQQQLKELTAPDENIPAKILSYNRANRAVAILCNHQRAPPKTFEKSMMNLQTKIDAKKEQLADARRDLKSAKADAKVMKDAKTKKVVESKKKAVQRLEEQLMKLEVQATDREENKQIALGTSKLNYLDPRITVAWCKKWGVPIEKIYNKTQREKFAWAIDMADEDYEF
Sequence of SSB (P05455 whole entry): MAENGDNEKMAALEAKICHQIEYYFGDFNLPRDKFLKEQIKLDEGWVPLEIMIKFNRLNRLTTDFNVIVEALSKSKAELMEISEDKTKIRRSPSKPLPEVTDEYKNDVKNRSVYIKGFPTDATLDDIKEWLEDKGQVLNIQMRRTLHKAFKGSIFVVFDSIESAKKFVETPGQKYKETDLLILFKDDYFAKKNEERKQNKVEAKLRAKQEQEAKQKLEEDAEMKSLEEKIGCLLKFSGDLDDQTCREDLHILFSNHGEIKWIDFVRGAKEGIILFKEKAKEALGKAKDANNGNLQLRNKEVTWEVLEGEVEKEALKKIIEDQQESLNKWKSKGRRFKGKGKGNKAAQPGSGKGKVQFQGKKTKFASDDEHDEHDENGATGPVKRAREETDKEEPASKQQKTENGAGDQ
Sequence of Centromere B (P07199 whole entry): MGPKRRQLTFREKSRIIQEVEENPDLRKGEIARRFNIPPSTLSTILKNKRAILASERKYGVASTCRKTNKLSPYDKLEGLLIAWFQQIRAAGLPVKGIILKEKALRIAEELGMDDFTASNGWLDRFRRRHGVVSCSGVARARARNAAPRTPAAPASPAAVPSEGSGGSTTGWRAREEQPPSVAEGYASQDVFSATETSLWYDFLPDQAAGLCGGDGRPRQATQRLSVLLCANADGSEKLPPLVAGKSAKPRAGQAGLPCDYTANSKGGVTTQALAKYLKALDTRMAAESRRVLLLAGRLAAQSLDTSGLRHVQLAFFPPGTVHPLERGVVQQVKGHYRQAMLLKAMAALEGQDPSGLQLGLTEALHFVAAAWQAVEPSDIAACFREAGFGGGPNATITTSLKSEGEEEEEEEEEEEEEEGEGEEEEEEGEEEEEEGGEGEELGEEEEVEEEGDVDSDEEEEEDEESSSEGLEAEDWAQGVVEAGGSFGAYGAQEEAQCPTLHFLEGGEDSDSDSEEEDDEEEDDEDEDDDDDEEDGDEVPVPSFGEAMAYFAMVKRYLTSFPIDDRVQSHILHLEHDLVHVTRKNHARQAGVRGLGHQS
Sequence of Jo-1 (P12081 whole entry): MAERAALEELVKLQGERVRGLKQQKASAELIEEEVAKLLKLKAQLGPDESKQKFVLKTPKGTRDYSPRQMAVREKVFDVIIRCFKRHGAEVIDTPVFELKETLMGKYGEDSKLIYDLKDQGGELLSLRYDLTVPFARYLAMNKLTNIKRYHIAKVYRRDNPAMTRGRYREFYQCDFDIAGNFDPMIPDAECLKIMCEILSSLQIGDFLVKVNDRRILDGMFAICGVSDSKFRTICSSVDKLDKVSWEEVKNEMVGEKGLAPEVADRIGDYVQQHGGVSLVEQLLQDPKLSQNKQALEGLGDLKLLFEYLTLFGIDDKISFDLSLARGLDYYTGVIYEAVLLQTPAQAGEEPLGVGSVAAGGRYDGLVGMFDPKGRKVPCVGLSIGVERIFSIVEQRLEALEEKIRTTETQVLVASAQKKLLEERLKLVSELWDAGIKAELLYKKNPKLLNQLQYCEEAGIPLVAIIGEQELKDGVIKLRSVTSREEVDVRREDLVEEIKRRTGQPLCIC

Regarding CH103 Fab, the stoichiometry (Fabs per trimer) (Fabs per trimer) in experiment [1] was found to be 3.

As for CH235 IA2 (antibody), the LogAUC with CH0505_CON D7gp120/293i was 4.77; with CH505.M10D8gp120 it was 0.43; in the experiment with CH505.M11D8gp120/293F, 0; with CH505.M19D8gp120 it was 0; in the experiment with CH505.M21D8gp120/293F it was 0; in the experiment with CH505.M5D8gp120293F it was 6.95. Besides, the LogAUC in the experiment with CH505.M7D8gp120/293F amounted to 0; with CH505.M9D8gp120/293F it was 0; in experiment [2], 0; in [3] it was 1.22; in [4], 0; in the experiment with CH505.w30.12D8gp120 it was 0. Moreover, the LogAUC in the experiment with CH505w020.14D8gp120 amounted to 1.22; with CH505w030.20D8gp120/293F, 0.53; with CH505w136.B18D8gp120, 0. For the same substance, the AtheNA signal (relative luminescence units) in the experiment with Centromere B [5] was determined as 228; in the experiment with Histones [6], 302; with Jo-1 [7], 26; in the experiment with RNP (ribonucleoprotein) [8], 93; with SSA [9], 43; in the experiment with SSB [10], 36. Moreover, the AtheNA signal (relative luminescence units) with Scl-70 [11] came to 49; in the experiment with Sm (Smith antigen) [12], 256; in the experiment with Centromere B [13], 256; with Histones [14] it was 371; in the experiment with RNP (ribonucleoprotein) [15], 101; in the experiment with Sm (Smith antigen) [16], 259. Also, the AtheNA signal (relative luminescence units) was found to be 225 with Centromere B [17]; 287 with Histones [18]; 20 with Jo-1 [19]; 85 in the experiment with RNP (ribonucleoprotein) [20]; 34 with SSA [21]; 31 with SSB [22]. The AtheNA signal (relative luminescence units) worked out at 44 with Scl-70 [23]; 279 with Sm (Smith antigen) [24]; 183 in the experiment with Centromere B [25]; 207 in the experiment with Histones [26]; 12 with Jo-1 [27]; 66 with RNP (ribonucleoprotein) [28]. For the same substance, the AtheNA signal (relative luminescence units) in the experiment with SSA [29] was 18; with SSB [30] it was 15; with Scl-70 [31], 28; in the experiment with Sm (Smith antigen) [32] it was 204.
